Columns and labels:
[1] = biological target: interleukin 6 receptor gp 80 (soluble Human Recombinant IL-6R) (human) (UniProt P08887); test: recovery of particles from balls coated with receptor, elution pH 3.6
[2] = biological target: interleukin 6 receptor gp 80 (soluble Human Recombinant IL-6R) (human) (UniProt P08887); test: panning of a 1:1 mixture of 176 Arg and 179 Ala phasmids on receptor in solid phase, elution pH 3.6
[3] = biological target: interleukin 6 receptor gp 80 (soluble Human Recombinant IL-6R) (human) (UniProt P08887); test: receptor binding assay, format not described
[4] = biological target: interleukin 6 receptor gp 80 (soluble Human Recombinant IL-6R) (human) (UniProt P08887); test: cell-based or functional assay
[5] = biological target: interleukin 6 receptor gp 80 (soluble Human Recombinant IL-6R) (human) (UniProt P08887); test: panning of a 1:100 mixture with M13K07 on polystyrene balls coated with shrIL-6R, elution pH 3.6 (eluate 1:10)
[6] = biological target: interleukin 6 receptor gp 80 (soluble Human Recombinant IL-6R) (human) (UniProt P08887); test: receptor binding assay, format not described; protein from bacterial periplasm

Chain of UniProt P08887 (P08887 20-355 limits assumed): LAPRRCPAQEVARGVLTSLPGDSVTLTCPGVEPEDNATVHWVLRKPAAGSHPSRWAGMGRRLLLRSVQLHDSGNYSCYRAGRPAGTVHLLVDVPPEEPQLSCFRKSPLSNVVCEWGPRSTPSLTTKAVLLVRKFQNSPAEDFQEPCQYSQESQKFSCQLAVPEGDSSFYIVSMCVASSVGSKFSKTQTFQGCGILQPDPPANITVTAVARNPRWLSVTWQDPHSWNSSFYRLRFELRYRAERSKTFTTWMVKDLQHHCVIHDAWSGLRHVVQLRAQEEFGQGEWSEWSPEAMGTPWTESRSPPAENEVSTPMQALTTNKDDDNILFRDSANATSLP

176 Arg phasmid (hIL-6 mutant 176 Arg shown on phasmid) (from UniProt P05231 30-212)
particles recovered relative to phasmid hIL-6 [1]: 3 relative | ratio of particles in the eluate against 179 Ala phasmid [2]: 15 ratio (to 1)

179 Ala phasmid (hIL-6 mutant 179 Ala shown on phasmid) (from UniProt P05231 29-212)
particles recovered relative to phasmid hIL-6 [1]: 0.2 relative

IL-6 Ser118Arg/Val121Asp (from UniProt P05231 29-212) (ligand)
Receptor binding (% of wild type) [3]: 66%

IL-6 Tyr31Asp/Gly35Phe/Ser118Arg/Val121Asp (from UniProt P05231 29-212) (ligand)
50% inhibition of interleukin 6 activity on hepatoma cells Hep3B (wild type IL-6 4 ng/ml) [4]: 164 ng/mL | 50% inhibition of interleukin 6 activity on hepatoma cells HepG2 (wild type IL-6 4 ng/ml) [4]: 132 ng/mL | 50% inhibition of interleukin 6 activity on myeloma cells XG-1 (wild type IL-6 0.1 ng/ml) [4]: 190 ng/mL | Inhibition of wild IL-6 (%) on human hepatoma cells (wild IL-6 4 ng/ml) at antagonist 16 ng/ml (4 X molar excess, 0.7 nM) [4]: 23% | Inhibition of wild IL-6 (%) on human hepatoma cells (wild IL-6 4 ng/ml) at antagonist 60 ng/ml (15 X molar excess, 2.7 nM) [4]: 28% | Inhibition of wild IL-6 (%) on human hepatoma cells (wild IL-6 4 ng/ml) at antagonist 164 ng/ml (41 X molar excess, 7.5 nM) [4]: 50% | Inhibition of wild IL-6 (%) on human hepatoma cells (wild IL-6 4 ng/ml) at antagonist 500 ng/ml (125 X molar excess, 22.7 nM) [4]: 75% | Inhibition of wild IL-6 (%) on human hepatoma cells (wild IL-6 4 ng/ml) at antagonist 1000 ng/ml (250 X molar excess, 45.5 nM) [4]: 82% | Inhibition of wild IL-6 (%) on human hepatoma cells (wild IL-6 4 ng/ml) at antagonist 2000 ng/ml (500 X molar excess, 90.0 nM) [4]: 90% | Inhibition of wild IL-6 (%) on human hepatoma cells (wild IL-6 4 ng/ml) at antagonist 4000 ng/ml (1000 X molar excess, 181.8 nM) [4]: 96% | Inhibition of wild type interleukin 6 activity (growth of XG-1 human myeloma cells, wild type IL-6 0.1 ng/ml) at antagonist 3.3 ng/ml [4]: 6% | Inhibition of wild type interleukin 6 activity (growth of XG-1 human myeloma cells, wild type IL-6 0.1 ng/ml) at antagonist 10 ng/ml [4]: 12% | Inhibition of wild type interleukin 6 activity (growth of XG-1 human myeloma cells, wild type IL-6 0.1 ng/ml) at antagonist 30 ng/ml [4]: 25% | Inhibition of wild type interleukin 6 activity (growth of XG-1 human myeloma cells, wild type IL-6 0.1 ng/ml) at antagonist 90 ng/ml [4]: 42% | Inhibition of wild type interleukin 6 activity (growth of XG-1 human myeloma cells, wild type IL-6 0.1 ng/ml) at antagonist 270 ng/ml [4]: 64% | Inhibition of wild type interleukin 6 activity (growth of XG-1 human myeloma cells, wild type IL-6 0.1 ng/ml) at antagonist 810 ng/ml [4]: 84% | Inhibition of wild type interleukin 6 activity (growth of XG-1 human myeloma cells, wild type IL-6 0.1 ng/ml) at antagonist 2430 ng/ml [4]: 90% | Inhibition of wild type interleukin 6 activity (growth of XG-1 human myeloma cells, wild type IL-6 0.1 ng/ml) at antagonist 7290 ng/ml [4]: 93% | Receptor binding (% of wild type) [3]: 97% | Receptor binding (% of wt) [3]: 97%

IL-6 Tyr31Asp/Gly35Phe/Ser118Leu/Val121Asp (from UniProt P05231 29-212) (ligand)
Inhibition of wild type interleukin 6 activity (growth of XG-1 human myeloma cells, wild type IL-6 0.1 ng/ml) at antagonist 3.3 ng/ml [4]: 0% | Inhibition of wild type interleukin 6 activity (growth of XG-1 human myeloma cells, wild type IL-6 0.1 ng/ml) at antagonist 10 ng/ml [4]: 3% | Inhibition of wild type interleukin 6 activity (growth of XG-1 human myeloma cells, wild type IL-6 0.1 ng/ml) at antagonist 30 ng/ml [4]: 10% | Inhibition of wild type interleukin 6 activity (growth of XG-1 human myeloma cells, wild type IL-6 0.1 ng/ml) at antagonist 90 ng/ml [4]: 31% | Inhibition of wild type interleukin 6 activity (growth of XG-1 human myeloma cells, wild type IL-6 0.1 ng/ml) at antagonist 270 ng/ml [4]: 53% | Inhibition of wild type interleukin 6 activity (growth of XG-1 human myeloma cells, wild type IL-6 0.1 ng/ml) at antagonist 810 ng/ml [4]: 71% | Inhibition of wild type interleukin 6 activity (growth of XG-1 human myeloma cells, wild type IL-6 0.1 ng/ml) at antagonist 2430 ng/ml [4]: 76% | Inhibition of wild type interleukin 6 activity (growth of XG-1 human myeloma cells, wild type IL-6 0.1 ng/ml) at antagonist 7290 ng/ml [4]: 81% | Receptor binding (% of wild type) [3]: 63%

IL-6 Tyr31Asp/Gly35Phe/Ser118Phe/Val121Asp (from UniProt P05231 29-212) (ligand)
Inhibition of wild type interleukin 6 activity (growth of XG-1 human myeloma cells, wild type IL-6 0.1 ng/ml) at antagonist 3.3 ng/ml [4]: 0% | Inhibition of wild type interleukin 6 activity (growth of XG-1 human myeloma cells, wild type IL-6 0.1 ng/ml) at antagonist 10 ng/ml [4]: 7% | Inhibition of wild type interleukin 6 activity (growth of XG-1 human myeloma cells, wild type IL-6 0.1 ng/ml) at antagonist 30 ng/ml [4]: 18% | Inhibition of wild type interleukin 6 activity (growth of XG-1 human myeloma cells, wild type IL-6 0.1 ng/ml) at antagonist 90 ng/ml [4]: 35% | Inhibition of wild type interleukin 6 activity (growth of XG-1 human myeloma cells, wild type IL-6 0.1 ng/ml) at antagonist 270 ng/ml [4]: 59% | Inhibition of wild type interleukin 6 activity (growth of XG-1 human myeloma cells, wild type IL-6 0.1 ng/ml) at antagonist 810 ng/ml [4]: 84% | Inhibition of wild type interleukin 6 activity (growth of XG-1 human myeloma cells, wild type IL-6 0.1 ng/ml) at antagonist 2430 ng/ml [4]: 90% | Inhibition of wild type interleukin 6 activity (growth of XG-1 human myeloma cells, wild type IL-6 0.1 ng/ml) at antagonist 7290 ng/ml [4]: 95% | Receptor binding (% of wild type) [3]: 76%

M13K07 helper bacteriophage particles
particles recovered relative to phasmid hIL-6 [1]: 0.18 relative

SAnt 1 (interleukin 6 Tyr31Asp/Gly35Phe/Ser118Arg/Val121Asp/Gln175Ile/Ser176Arg/Gln183Ala) (from UniProt P05231 29-212) (ligand)
50% inhibition of interleukin 6 activity on hepatoma cells Hep3B (wild type IL-6 4 ng/ml) [4]: 19 ng/mL | 50% inhibition of interleukin 6 activity on hepatoma cells HepG2 (wild type IL-6 4 ng/ml) [4]: 32 ng/mL | 50% inhibition of interleukin 6 activity on myeloma cells XG-1 (wild type IL-6 0.1 ng/ml) [4]: 22 ng/mL | Receptor binding (% of wt) [3]: 406%

hIL-6 phasmid (phage particle with hIL6-pIII fusion molecules) (from UniProt P05231 30-212)
particles recovered relative to phasmid hIL-6 [1]: 1 relative | enrichment with respect to M13K07 [5]: 10 fold

interleukin 6 helix A and C mutant 31 Asp / 35 Phe / 118 Arg / 121 Val (from UniProt P05231 29-212) (ligand)
Receptor binding (% of wild type) [3]: 66%

interleukin 6 helix C mutant 118 Arg / 121 Val (from UniProt P05231 29-212) (ligand)
Receptor binding (% of wild type) [3]: 81%

interleukin 6 helix C mutant 118 Leu / 121 Asp (from UniProt P05231 29-212) (ligand)
Receptor binding (% of wild type) [3]: 92%

interleukin 6 helix C mutant 118 Ser / 121 Asp (from UniProt P05231 29-212) (ligand)
Receptor binding (% of wild type) [3]: 78%

interleukin 6 helix D mutant of phage 4-8 (181 Ile, 183 Asn) (from UniProt P05231 29-212) (ligand)
Receptor binding (%) [6]: 100%

interleukin 6 helix D mutant of phage 5-3 (175 Ile, 181 Val, 183 His) (from UniProt P05231 29-212) (ligand)
Receptor binding (%) [6]: 80%

interleukin 6 helix D mutant of phage 5-4 (183 Tyr) (from UniProt P05231 29-212) (ligand)
Receptor binding (%) [6]: 240%

interleukin 6 helix D mutant of phage 5-8 (183 Ala) (from UniProt P05231 29-212) (ligand)
Receptor binding (%) [6]: 240%

interleukin 6 mutant Gln175Ile/Gln183Ala (phage 5-2) (from UniProt P05231 29-212) (ligand)
Receptor binding (%) [6]: 260%

interleukin 6 mutant Gln175Ile/Ser176Arg/Gln183Ala (from UniProt P05231 29-212) (ligand)
Receptor binding (%) [6]: 450%

wild type human interleukin 6 (from UniProt P05231 30-212) (ligand)
Receptor binding (% of wild type) [3]: 100% | Receptor binding (%) [6]: 100%

Source: patent publication EP0656117B1
